Measurements: publication PMC4484057

Experiments:
[1] = biological target: Gαi1-intYFP (UniProt P63096); assay: FRET or BRET; living HeLa cells cotransfected with Gαi1-intYFP, CFP-Gβ1 and Gγ2, 0.2% FBS overnight, before stimulation (t0); confocal, FRET efficiency at the plasma membrane; also Daple-depleted cells with or without Wnt5a, and Wnt3 stimulation, where FRET continued
[2] = biological target: GST-FZD7-CT (UniProt O75084); assay: pull-down; as a19, His-Gαi3 (GDP) with GST-FZD7-CT in the presence of His-Daple-CT WT

Sequence of Gαi1-intYFP (P63096 whole entry): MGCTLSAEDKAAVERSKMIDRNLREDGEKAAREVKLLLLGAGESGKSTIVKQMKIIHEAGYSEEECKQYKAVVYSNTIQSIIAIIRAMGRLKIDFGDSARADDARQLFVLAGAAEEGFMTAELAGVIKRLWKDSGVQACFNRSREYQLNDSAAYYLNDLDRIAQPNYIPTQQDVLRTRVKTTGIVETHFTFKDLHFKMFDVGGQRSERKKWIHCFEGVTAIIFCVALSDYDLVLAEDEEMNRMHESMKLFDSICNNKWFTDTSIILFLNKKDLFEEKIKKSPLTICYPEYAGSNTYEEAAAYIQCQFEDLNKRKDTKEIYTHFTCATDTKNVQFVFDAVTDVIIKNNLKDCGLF
Sequence of His-Gαi3 (P08753 whole entry): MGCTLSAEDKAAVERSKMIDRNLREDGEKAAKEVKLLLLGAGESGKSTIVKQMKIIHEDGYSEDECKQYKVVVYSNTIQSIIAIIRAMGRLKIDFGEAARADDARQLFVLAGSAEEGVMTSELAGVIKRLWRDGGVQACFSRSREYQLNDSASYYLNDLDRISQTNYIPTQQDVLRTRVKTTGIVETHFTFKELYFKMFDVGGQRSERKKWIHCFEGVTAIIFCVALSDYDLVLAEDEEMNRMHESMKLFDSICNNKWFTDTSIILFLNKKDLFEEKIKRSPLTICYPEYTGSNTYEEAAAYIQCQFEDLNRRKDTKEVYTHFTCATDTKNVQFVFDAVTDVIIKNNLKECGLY

| FRET efficiency [1] | fold increase of binding in the presence of m2 [2] | Substance |
| --- | --- | --- |
| 0.36 |  | CFP-Gβ1 with Gγ2 (from UniProt P62873 1-340; P59768 1-71) (complex) |
|  | 5 fold | His-Gαi3 (from UniProt P08753 1-354) (natural protein) |
